The record followed here is patent publication US20090274695A1 (published 2009).

As a reminder, the koff is the first-order rate constant of dissociation. As a reminder, the kon is a measure of how fast the partners come together. As usually defined, the Kd is the concentration at which binding is half-saturated.

The target in test [1] is T1, unnamed immobilized partner drawn in Figure 10B.
T1 construct: It is drawn as a chain of three ovals held by a small tag on a cross-shaped capture molecule on the surface; This would fit biotinylated uPAR on avidin, but it carries no label, so it is not assigned to m7 or m13
As to the kind of experiment: BIAcore, two-step binding scheme. The line is printed 'ka1' a second time, but the unit 1/s and the scheme's kd1 mark it as the dissociation rate of the first step. Immobilized partner not named. Background: SPR reads the build-up and loss of mass on a sensor chip optically.

For test [2], the target named is T2, Mouse uPAR, full-length, on transfected COS cells (mouse, UniProt P35456 24-298).
T2 construct: whole, on cells; also called murine uPAR
T2 sequence (looked up): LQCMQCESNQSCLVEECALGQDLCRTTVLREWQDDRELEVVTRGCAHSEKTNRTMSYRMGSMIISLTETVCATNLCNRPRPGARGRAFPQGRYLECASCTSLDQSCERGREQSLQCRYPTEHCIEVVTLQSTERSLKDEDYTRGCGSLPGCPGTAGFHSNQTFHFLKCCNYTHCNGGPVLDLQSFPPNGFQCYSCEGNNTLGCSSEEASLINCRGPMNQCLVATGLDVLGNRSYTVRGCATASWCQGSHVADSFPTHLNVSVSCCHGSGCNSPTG
As to the kind of experiment: AP fusion protein on COS cells transfected with murine uPAR, colorimetric AP assay; bar pattern assigned by bar order and by paragraph 233.

The target in test [3] is T1, unnamed immobilized partner drawn in …. As to the kind of experiment: BIAcore, two-step binding scheme drawn beside the numbers; immobilized partner not named.
For test [4], the target named is T3, Human uPAR (urokinase-type plasminogen activator receptor), full-length, on transfected COS or CHO cells (human, UniProt Q03405 23-305).
T3 construct: whole, on cells; GPI-anchored on the cell surface; also called uPAR-transfected cells
As to the kind of experiment: homologous competition of purified CYTL1 against CYTL1-AP on uPAR-transfected cells, three independent experiments.

Test [5] addresses T4, Recombinant human uPAR (R&D Systems), immobilized on a CM5 sensor chip (human, UniProt Q03405 23-303, limits assumed).
T4 construct: Bought protein, amine-coupled to the chip; also called immobilized uPAR
In words: SPR equilibrium binding, Langmuir single-site fit, three sets of readings; SPR equilibrium binding, uPAR immobilized on the chip.

T3 sequence (Q03405 23-305): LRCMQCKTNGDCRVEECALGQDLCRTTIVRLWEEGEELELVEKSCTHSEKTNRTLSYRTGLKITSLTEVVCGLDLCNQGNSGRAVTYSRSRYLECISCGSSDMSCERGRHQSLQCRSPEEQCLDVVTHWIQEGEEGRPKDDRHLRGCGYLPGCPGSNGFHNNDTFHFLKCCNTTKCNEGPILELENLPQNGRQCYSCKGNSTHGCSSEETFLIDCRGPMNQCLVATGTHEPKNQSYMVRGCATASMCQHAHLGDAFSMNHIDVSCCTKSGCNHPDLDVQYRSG
T4 sequence (Q03405 23-303 limits assumed): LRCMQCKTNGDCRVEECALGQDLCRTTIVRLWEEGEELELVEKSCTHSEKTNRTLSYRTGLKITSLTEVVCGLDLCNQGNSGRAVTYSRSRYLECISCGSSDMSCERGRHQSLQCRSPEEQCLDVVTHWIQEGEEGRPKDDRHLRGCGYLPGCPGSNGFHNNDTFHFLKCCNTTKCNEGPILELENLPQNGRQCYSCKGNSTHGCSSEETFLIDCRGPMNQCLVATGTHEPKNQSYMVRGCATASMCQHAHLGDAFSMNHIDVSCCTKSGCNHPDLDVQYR

B1: Human CYTL1-alkaline phosphatase fusion protein (other)
chain: TPPTCYSRMRALSQEITRDFNLLQVSEPSEPCVRYLPRLYLDIHNYCVLDKLRDFVASPPCWKVAQVDSLKDKARKLYTIMNSFCRRDLVFLLDDCNALEYPIPVTTVLPDRQR
notes: Expressed in 293 cells from a pRK5-based vector and used as cell-conditioned medium; also called CYTL1-AP; human CYTL1-AP; not shown: Human placental alkaline phosphatase (AP)
As for B1, the koff in test [1] was found to be 0.018 s⁻¹. The binding result in test [2] was “no binding”. The molecule further yielded a kon in test [3] of 570000 M⁻¹ s⁻¹.

B2: Purified human CYTL1 (cytokine-like 1), expressed in insect cells, poly-histidine tag cleaved (ligand)
chain: TPPTCYSRMRALSQEITRDFNLLQVSEPSEPCVRYLPRLYLDIHNYCVLDKLRDFVASPPCWKVAQVDSLKDKARKLYTIMNSFCRRDLVFLLDDCNALEYPIPVTTVLPDRQR
notes: also called purified CYTL1; PRO4425
For the molecule B2, the Kd in test [4] is about 1500 nM; in test [5], 1100 nM.
